Assay results as given in paper doi:10.1101/2023.03.06.531428 (bioRxiv, 2023).

B1: untagged, recombinant TIMP-1 (natural protein)
chain: not shown
B2: ADAMTS-7-FLAG (enzyme)
chain: APGPAPGRATEGRAALDIVHPVRVDAGGSFLSYELWPRALRKRDVSVRRDAPAFYELQYRGRELRFNLTANQHLLAPGFVSETRRRGGLGRAHIRAHTPACHLLGEVQDPELEGGLAAISACDGLKGVFQLSNEDYFIEPLDSAPARPGHAQPHVVYKRQAPERLAQRGDSSAPSTCGVQVYPELESRRERWEQRQQWRRPRLRRLHQRSVSKEKWVETLVVADAKMVEYHGQPQVESYVLTIMNMVAGLFHDPSIGNPIHITIVRLVLLEDEEEDLKITHHADNTLKSFCKWQKSINMKGDAHPLHHDTAILLTRKDLCAAMNRPCETLGLSHVAGMCQPHRSCSINEDTGLPLAFTVAHELGHSFGIQHDGSGNDCEPVGKRPFIMSPQLLYDAAPLTWSRCSRQYITRFLDRGWGLCLDDPPAKDIIDFPSVPPGVLYDVSHQCRLQYGAYSAFCEDMDNVCHTLWCSVGTTCHSKLDAAVDGTRCGENKWCLSGECVPVGFRPEAVDGGWSGWSAWSICSRSCGMGVQSAERQCTQPTPKYKGRYCVGERKRFRLCNLQACPAGRPSFRHVQCSHFDAMLYKGQLHTWVPVVNDVNPCELHCRPANEYFAEKLRDAVVDGTPCYQVRASRDLCINGICKNVGCDFEIDSGAMEDRCGVCHGNGSTCHTVSGTFEEAEGLGYVDVGLIPAGAREIRIQEVAEAANFLALRSEDPEKYFLNGGWTIQWNGDYQVAGTTFTYARRGNWENLTSPGPTKEPVWIQLLFQESNPGVHYEYTIHREAGGHDEVPPPVFSWHYGPWTKCTVTCGRGVQRQNVYCLERQAGPVDEEHCDPLGRPDDQQRKCSEQPCPARWWAGEWQLCSSSCGPGGLSRRAVLCIRSVGLDEQSALEPPACEHLPRPPTETPCNRHVPCPATWAVGNWSQCSVTCGEGTQRRNVLCTNDTGVPCDEAQQPASEVTCSLPLCRWPLGTLGPEGSGSGSSSHELFNEADFIPHHLAPRPSPASSPKPGTMGNAIEEEAPELDLPGPVFVDDFYYDYNFINFHEDLSYGPSEEPDLDLAGTGDRTPPPHSHPAAPSTGSPVPATEPPAAKEEGVLGPWSPSPWPSQAGRSPPPPSEQTPGNPLINFLPEEDTPIGAPDLGLPSLSWPRVSTDGLQTPATPESQNDFPVGKDSQSQLPPPWRDRTNEVFKDDEEPKGRGAPHLPPRPSSTLPPLSPVGSTHSSPSPDVAELWTGGTVAWEPALEGGLGPVDSELWPTVGVASLLPPPIAPLPEMKVRDSSLEPGTPSFPTPGPGSWDLQTVAVWGTFLPTTLTGLGHMPEPALNPGPKGQPESLSPEVPLSSRLLSTPAWDSPANSHRVPETQPLAPSLAEAGPPADPLVVRNAGWQAGNWSECSTTCGLGAVWRPVRCSSGRDEDCAPAGRPQPARRCHLRPCATWHSGNWSKCSRSCGGGSSVRDVQCVDTRDLRPLRPFHCQPGPAKPPAHRPCGAQPCLSWYTSSWRECSEACGGGEQQRLVTCPEPGLCEEALRPNTTRPCNTHPCTQWVVGPWGQCSGPCGGGVQRRLVKCVNTQTGLPEEDSDQCGHEAWPESSRPCGTEDCEPVEPPRCERDRLSFGFCETLRLLGRCQLPTIRTQCCRSCSPPSHGAPSRGHQRVARR

Experiments:
Test in all cases: AlphaScreen or HTRF
ADAMTS-7-FLAG = target: B2
TIMP-1-HA [1] = target: T1, TIMP-1-HA (human, UniProt P01033 24-207)
T1 sequence (P01033 24-207): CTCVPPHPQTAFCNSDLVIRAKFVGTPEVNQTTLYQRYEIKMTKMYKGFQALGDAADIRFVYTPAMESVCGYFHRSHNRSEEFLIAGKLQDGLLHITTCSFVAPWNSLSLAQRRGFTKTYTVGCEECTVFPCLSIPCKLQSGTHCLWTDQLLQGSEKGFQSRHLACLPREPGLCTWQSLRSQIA

TIMP-1-HA [2] = target: T1, TIMP-1-HA; remark: listed apart in the source

Binder | FRET ratio (665/620) of ADAMTS-7-FLAG and TIMP-1-HA with 400 ng untagged TIMP-1 (ADAMTS-7-FLAG) | FRET ratio (665/620) of ADAMTS-7-FLAG and TIMP-1-HA with 800 ng untagged TIMP-1 (ADAMTS-7-FLAG) | FRET ratio (665/620) with 0 ng untagged TIMP-1 (TIMP-1-HA [1]) | FRET ratio (665/620) (TIMP-1-HA [2])
B1 | 4420 665/620 ratio | 3570 665/620 ratio | – | –
B2 | – | – | 4950 665/620 ratio | 5480 665/620 ratio
